Data reported in patent EP2857035B1.

Assays:
HLA-B35 (human) = test: assembly assay, T2-B35 cell lysate, W6/32 IP, IEF gel
HLA-B7 (human) = test: assembly assay (HLA-B7 stabilisation)

Row | Binder | C50 (HLA-B35 (human)) [µM] | C50 (HLA-B7 (human)) [µM]
1 | YPLHEQHQM (modifications not checked) [C24, EBNA3A458-466] | 0.8 | 
2 | RPPIFIRRL (modifications not checked) [C7] |  | 0.5
3 | QPRAPIRPI (modifications not checked) [C6] |  | 0.1
